These results are taken from patent US20210252150A1.

Assay [1] addresses T1, HA of A/California/04/2009 (H1N1) (influenza A virus (H1N1)), P26140. Put plainly: ELISA. Particulars: remark: other sources report otherwise. In general terms: In an ELISA, binding on a coated surface is turned into a signal by an enzyme label.
The target in assay [2] is T1, HA of A/California/04/2009 (H1N1) …. Put plainly: ELISA, recombinant HA. Particulars: remark: other sources report otherwise.
Assay [3] shares this target. Put plainly: BLI, 1:1 global fit; Table S2 of the text prints 48 for this strain. To be noted: remark: other sources report otherwise. (Biolayer interferometry detects binding as a change in optical thickness at a sensor tip.)
Assay [4] has the same target. Kind of assay: BLI, Fab on immobilized biotinylated HA. To be noted: remark: other sources report otherwise.
The target of assay [5] is HA of A/Hong Kong/1073/99 (H9) (influenza A virus (H9)).
Assay [6] addresses HA of A/Indonesia/5/2005 (H5N1) (influenza A virus (H5N1)).
Assay [7] deals with HA of A/Shanghai/2/2013 (H7N9) (influenza A virus (H7N9)).
In assay [8] the target is HA of A/Netherlands/219/2003 (H7N7) (influenza A virus (H7N7)).
In assay [9] the target is HA of A/shearwater/Western Australia/2576/1979 (H15N9) (influenza A virus (H15N9)).
Assay [10] has as its target HA of A/mallard duck/Astrakhan/263/1982 (H14N5) (influenza A virus (H14N5)).
For assay [11], the target named is HA of A/Hong Kong/1/1968 (H3N2) (influenza A virus (H3N2)), Q91MA7. To be noted: remark: other sources report otherwise.
Assay [12] has as its target T1, HA of A/California/04/2009 (H1N1) …. Put plainly: ELISA, recombinant HA. To be noted: remark: other sources report otherwise. The source holds these as a separate data set.

B1: FluA-20 (hybridoma-produced IgG) (antibody, V domains shown)
VH: QVQLQESGPGLVKPSETLSLTCSVSGVSVTSDIYYWTWIRQPPGKGLEWIGYIFYNGDTNYNPSLKSRVTMSIDTSKNEFSLRLTSVTAADTAVYFCARGTEDLGYCSSGSCPNHWGQGTLVTVSS
VL: DIQMTQSPSSLSASIGDRVTITCRPSQNIRSFLNWFQHKPGKAPKLLIYAASNLQSGVPSRFSGSGSGTEFTLTIRSLQPEDFATYYCQQSYNTPPTFGQGTKVEIK
As to B1, the EC50 – broadly, the midpoint of the concentration-response curve – in assay [1] was 0.008 µg/mL; in [2] it was 0.01 µg/mL.

B2: FluA-20 Fab (Fab, V domains shown)
VH: QVQLQESGPGLVKPSETLSLTCSVSGVSVTSDIYYWTWIRQPPGKGLEWIGYIFYNGDTNYNPSLKSRVTMSIDTSKNEFSLRLTSVTAADTAVYFCARGTEDLGYCSSGSCPNHWGQGTLVTVSS
VL: DIQMTQSPSSLSASIGDRVTITCRPSQNIRSFLNWFQHKPGKAPKLLIYAASNLQSGVPSRFSGSGSGTEFTLTIRSLQPEDFATYYCQQSYNTPPTFGQGTKVEIK
For the molecule B2, the Kd – broadly, the equilibrium constant for the complex coming apart – in assay [3] is 46 nM; in [4], 48 nM.

B3: rFluA-20 heavy chain mutant Y100aA (antibody, V domains shown)
VH: QVQLQESGPGLVKPSETLSLTCSVSGVSVTSDIYYWTWIRQPPGKGLEWIGYIFYNGDTNYNPSLKSRVTMSIDTSKNEFSLRLTSVTAADTAVYFCARGTEDLGACSSGSCPNHWGQGTLVTVSS
VL: DIQMTQSPSSLSASIGDRVTITCRPSQNIRSFLNWFQHKPGKAPKLLIYAASNLQSGVPSRFSGSGSGTEFTLTIRSLQPEDFATYYCQQSYNTPPTFGQGTKVEIK
For the molecule B3, the EC50 fold over wild-type rFluA-20 in assay [5], in assay [6], in assay [7], in assay [8], in [9] and in assay [10] was above 100 fold each time.

B4: rFluA-20 light chain mutant Q55A (antibody, V domains shown)
VH: QVQLQESGPGLVKPSETLSLTCSVSGVSVTSDIYYWTWIRQPPGKGLEWIGYIFYNGDTNYNPSLKSRVTMSIDTSKNEFSLRLTSVTAADTAVYFCARGTEDLGYCSSGSCPNHWGQGTLVTVSS
VL: DIQMTQSPSSLSASIGDRVTITCRPSQNIRSFLNWFQHKPGKAPKLLIYAASNLASGVPSRFSGSGSGTEFTLTIRSLQPEDFATYYCQQSYNTPPTFGQGTKVEIK
In assay [11], B4 displayed a concentration giving a half-maximal response (EC50) of 0.08 µg/mL.

B5: rFluA-20 heavy chain mutant Y34A (antibody, V domains shown)
VH: QVQLQESGPGLVKPSETLSLTCSVSGVSVTSDIAYWTWIRQPPGKGLEWIGYIFYNGDTNYNPSLKSRVTMSIDTSKNEFSLRLTSVTAADTAVYFCARGTEDLGYCSSGSCPNHWGQGTLVTVSS
VL: DIQMTQSPSSLSASIGDRVTITCRPSQNIRSFLNWFQHKPGKAPKLLIYAASNLQSGVPSRFSGSGSGTEFTLTIRSLQPEDFATYYCQQSYNTPPTFGQGTKVEIK
As for B5, the EC50 was 0.21 µg/mL in assay [5]; 0.44 µg/mL in assay [7]; 0.07 µg/mL in assay [8]; 0.1 µg/mL in [9]; 0.54 µg/mL in [10]. The same molecule had an EC50 fold over wild-type rFluA-20 in [6] above 100 fold.

B6: rFluA-20 heavy chain mutant E97A (antibody, V domains shown)
VH: QVQLQESGPGLVKPSETLSLTCSVSGVSVTSDIYYWTWIRQPPGKGLEWIGYIFYNGDTNYNPSLKSRVTMSIDTSKNEFSLRLTSVTAADTAVYFCARGTADLGYCSSGSCPNHWGQGTLVTVSS
VL: DIQMTQSPSSLSASIGDRVTITCRPSQNIRSFLNWFQHKPGKAPKLLIYAASNLQSGVPSRFSGSGSGTEFTLTIRSLQPEDFATYYCQQSYNTPPTFGQGTKVEIK
Regarding B6, the EC50 stood at 0.36 µg/mL in assay [5]; 1 µg/mL in assay [7]; 0.08 µg/mL in assay [8]; 0.12 µg/mL in [9]; 0.64 µg/mL in [10]. The molecule also displayed an EC50 fold over wild-type rFluA-20 in [6] above 100 fold.

B7: rFluA-20 (recombinant FluA-20 IgG) (antibody, V domains shown)
VH: QVQLQESGPGLVKPSETLSLTCSVSGVSVTSDIYYWTWIRQPPGKGLEWIGYIFYNGDTNYNPSLKSRVTMSIDTSKNEFSLRLTSVTAADTAVYFCARGTEDLGYCSSGSCPNHWGQGTLVTVSS
VL: DIQMTQSPSSLSASIGDRVTITCRPSQNIRSFLNWFQHKPGKAPKLLIYAASNLQSGVPSRFSGSGSGTEFTLTIRSLQPEDFATYYCQQSYNTPPTFGQGTKVEIK
For B7, the values for the EC50 in assay [12] and in assay [2] were 0.031 µg/mL and 0.012 µg/mL, respectively.

B8: rFluA-20 heavy chain mutant T96A (antibody, V domains shown)
VH: QVQLQESGPGLVKPSETLSLTCSVSGVSVTSDIYYWTWIRQPPGKGLEWIGYIFYNGDTNYNPSLKSRVTMSIDTSKNEFSLRLTSVTAADTAVYFCARGAEDLGYCSSGSCPNHWGQGTLVTVSS
VL: DIQMTQSPSSLSASIGDRVTITCRPSQNIRSFLNWFQHKPGKAPKLLIYAASNLQSGVPSRFSGSGSGTEFTLTIRSLQPEDFATYYCQQSYNTPPTFGQGTKVEIK
For the molecule B8, the EC50 in assay [5] stood at 0.1 µg/mL; in [6] it was 0.11 µg/mL; in [7], 0.37 µg/mL; in [8] it was 0.04 µg/mL; in [9], 0.07 µg/mL; in assay [10] it was 0.23 µg/mL.

B9: rFluA-20 heavy chain mutant D98A (antibody, V domains shown)
VH: QVQLQESGPGLVKPSETLSLTCSVSGVSVTSDIYYWTWIRQPPGKGLEWIGYIFYNGDTNYNPSLKSRVTMSIDTSKNEFSLRLTSVTAADTAVYFCARGTEALGYCSSGSCPNHWGQGTLVTVSS
VL: DIQMTQSPSSLSASIGDRVTITCRPSQNIRSFLNWFQHKPGKAPKLLIYAASNLQSGVPSRFSGSGSGTEFTLTIRSLQPEDFATYYCQQSYNTPPTFGQGTKVEIK
The molecule B9 registered an EC50 fold over wild-type rFluA-20 in [8] above 100 fold.
